Patent US20260008815A1, “CYCLIC PEPTIDE OR SALT THEREOF, AND USES THEREOF” (FUJIFILM Corporation, priority 2023, published 2026)
Bridge positions count the residues as written; N and C are the ends. Ends that are not written are not given here. COCH2 = acetyl group that carries the bridge

B1: cyclic peptide SEQ ID NO: 49 (peptide)
peptide: SCQGNWISNTQFRYFIAYK(COCH2)T
modifications: thioether 2-19 (inferred); not fully specified (residue 1); printed as s-(C)-QGNWISNTQFRYFIAY-(K(acetyl))-T

biological target: T1, Recombinant Human FGFR2 alpha (IIIc) Fc Chimera Protein, CF (R&D systems, 712-FR-050) (human, UniProt P21802 22-377); assay: ELISA on plate-bound FGFR2-Fc
T1 construct: bought; not shown: Fc part of the chimera
How it was run: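 Plate-immobilized FGFR2 alpha (IIIc)-Fc (5 ng/well) incubated with peptide 3 h at room temperature, then anti-Myc antibody 2 h and chemiluminescent ELISA substrate. Signal corrected by subtracting FGFR-free wells; binding affinity scored into categories from the dose-response.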

T1 sequence (P21802 22-377, change not shown): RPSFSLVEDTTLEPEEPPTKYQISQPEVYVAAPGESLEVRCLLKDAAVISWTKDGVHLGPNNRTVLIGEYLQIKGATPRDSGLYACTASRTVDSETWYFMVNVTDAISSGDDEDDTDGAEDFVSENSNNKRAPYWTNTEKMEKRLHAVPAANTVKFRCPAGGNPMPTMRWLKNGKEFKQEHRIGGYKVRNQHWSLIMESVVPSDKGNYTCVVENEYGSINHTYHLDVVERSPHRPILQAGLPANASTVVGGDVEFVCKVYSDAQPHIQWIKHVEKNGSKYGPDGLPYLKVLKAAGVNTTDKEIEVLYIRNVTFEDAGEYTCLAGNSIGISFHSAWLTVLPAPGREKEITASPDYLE

| ELISA luminescence signal at 10 nmol/L peptide, relative to SEQ ID NO: 47 (=1) | Binder |
| --- | --- |
| 0.1 to 0.5 ratio | LCYLYQYLYTTK(COCH2)Y (thioether 2-12) [cyclic peptide SEQ ID NO: 362] |
| 0.1 to 0.5 ratio | LCYLYQYIYTAK(COCH2)F (thioether 2-12) [cyclic peptide SEQ ID NO: 363] |
| 0.1 to 0.5 ratio | QCYYLYWYLYK(COCH2)I (thioether 2-11) [cyclic peptide SEQ ID NO: 361] |
| ≥ 0.7 ratio | ACGQNFYHPVQFHYFIAYK(COCH2)Q (thioether 2-19 (inferred)) [cyclic peptide SEQ ID NO: 50] |
| ≥ 0.7 ratio | GCYWNEVQYYYLQQYK(COCH2)Q (thioether 2-16 (inferred)) [cyclic peptide SEQ ID NO: 48] |
| ≥ 0.7 ratio | KCPQNFINPVQWRYFQAYKN (not fully specified; thioether ring (C)-(K(acetyl))) [cyclic peptide SEQ ID NO: 66] |
| ≥ 0.7 ratio | GCPQNFINPVQWRYFQHYK(COCH2)N (thioether 2-19 (inferred)) [cyclic peptide SEQ ID NO: 71] |
| ≥ 0.7 ratio | QCPQNFINPVQWRYFQHFK(COCH2)N (thioether 2-19) [cyclic peptide SEQ ID NO: 92] |
| ≥ 0.7 ratio | HCPQNFINPVQWRYFQHYK(COCH2)N (thioether 2-19 (inferred)) [cyclic peptide SEQ ID NO: 86] |
| 0.1 to 0.5 ratio | QCPQNFINPVQSRYFQHYK(COCH2)N (thioether 2-19) [cyclic peptide SEQ ID NO: 105] |
| 0.1 to 0.5 ratio | QCPQNFINPVQWRYRQHYK(COCH2)N (thioether 2-19 (inferred)) [cyclic peptide SEQ ID NO: 90] |
| 0.5 to 0.7 ratio | QCPQNFINPVQYRYFQHYK(COCH2)N (thioether 2-19) [cyclic peptide SEQ ID NO: 104] |
| 0.1 to 0.5 ratio | QCPQNFINPVQWRYFQHSK(COCH2)N (thioether 2-19) [cyclic peptide SEQ ID NO: 94] |
| ≥ 0.7 ratio | QCPQNFINPVQWRYFQHWK(COCH2)N (thioether 2-19) [cyclic peptide SEQ ID NO: 93] |
| ≥ 0.7 ratio | PCPQNFINPVQWRYFQHYK(COCH2)N (thioether 2-19 (inferred)) [cyclic peptide SEQ ID NO: 72] |
| ≥ 0.7 ratio | ICPQNFINPVQWRYFQHYK(COCH2)N (thioether 2-19 (inferred)) [cyclic peptide SEQ ID NO: 74] |
| 0.1 to 0.5 ratio | QCPQNFINPVQWRYFQHVK(COCH2)N (thioether 2-19) [cyclic peptide SEQ ID NO: 91] |
| ≥ 0.7 ratio | DCPQNFINPVQWRYFQHYK(COCH2)N (thioether 2-19 (inferred)) [cyclic peptide SEQ ID NO: 83] |
| ≥ 0.7 ratio | WCPQNFINPVQWRYFQHYK(COCH2)N (thioether 2-19 (inferred)) [cyclic peptide SEQ ID NO: 78] |
| ≥ 0.7 ratio | FCPQNFINPVQWRYFQHYK(COCH2)N (thioether 2-19 (inferred)) [cyclic peptide SEQ ID NO: 76] |
| 0.1 to 0.5 ratio | QCPQNFINPVQIRYFQHYK(COCH2)N (thioether 2-19) [cyclic peptide SEQ ID NO: 101] |
| ≥ 0.7 ratio | NCPQNFINPVQWRYFQHYK(COCH2)N (thioether 2-19 (inferred)) [cyclic peptide SEQ ID NO: 79] |
| ≥ 0.7 ratio | QCPQNFINPVQWRYLQHYK(COCH2)N (thioether 2-19 (inferred)) [cyclic peptide SEQ ID NO: 88] |

| ELISA luminescence signal at 10 nmol/L peptide, relative to SEQ ID NO: 47 (=1) | Binder |
| --- | --- |
| 0.1 to 0.5 ratio | QCPQNFINPVQVRYFQHYK(COCH2)N (thioether 2-19) [cyclic peptide SEQ ID NO: 102] |
| 0.1 to 0.5 ratio | QCPQTFINPVQWRYFQHYK(COCH2)N (thioether 2-19) [cyclic peptide SEQ ID NO: 98] |
| 0.1 to 0.5 ratio | QCPQSFINPVQWRYFQHYK(COCH2)N (thioether 2-19) [cyclic peptide SEQ ID NO: 97] |
| ≥ 0.7 ratio | RCPQNFINPVQWRYFQHYK(COCH2)N (thioether 2-19 (inferred)) [cyclic peptide SEQ ID NO: 85] |
| 0.5 to 0.7 ratio | QCPQNFINPVQFRYFQHYK(COCH2)N (thioether 2-19) [cyclic peptide SEQ ID NO: 103] |
| ≥ 0.7 ratio | YCPQNFINPVQWRYFQHYK(COCH2)N (thioether 2-19 (inferred)) [cyclic peptide SEQ ID NO: 77] |
| 0.1 to 0.5 ratio | QCPQGFINPVQWRYFQHYK(COCH2)N (thioether 2-19) [cyclic peptide SEQ ID NO: 95] |
| ≥ 0.7 ratio | QCPQNFINPVQHRYFQHYK(COCH2)N (thioether 2-19) [cyclic peptide SEQ ID NO: 106] |
| ≥ 0.7 ratio | LCPQNFINPVQWRYFQHYK(COCH2)N (thioether 2-19 (inferred)) [cyclic peptide SEQ ID NO: 73] |
| ≥ 0.7 ratio | QCPQNFINPVHWRYFQHYK(COCH2)N (thioether 2-19 (inferred)) [cyclic peptide SEQ ID NO: 87] |
| 0.1 to 0.5 ratio | QCPQYFINPVQWRYFQHYK(COCH2)N (thioether 2-19) [cyclic peptide SEQ ID NO: 96] |
| 0.1 to 0.5 ratio | QCPQHFINPVQWRYFQHYK(COCH2)N (thioether 2-19) [cyclic peptide SEQ ID NO: 100] |
| ≥ 0.7 ratio | SCPQNFINPVQWRYFQHYK(COCH2)N (thioether 2-19 (inferred)) [cyclic peptide SEQ ID NO: 81] |
| ≥ 0.7 ratio | VCPQNFINPVQWRYFQHYK(COCH2)N (thioether 2-19 (inferred)) [cyclic peptide SEQ ID NO: 75] |
| ≥ 0.7 ratio | TCPQNFINPVQWRYFQHYK(COCH2)N (thioether 2-19 (inferred)) [cyclic peptide SEQ ID NO: 82] |
| ≥ 0.7 ratio | ECPQNFINPVQWRYFQHYK(COCH2)N (thioether 2-19 (inferred)) [cyclic peptide SEQ ID NO: 84] |
| 0.5 to 0.7 ratio | QCPQNFINPVQWRYYQHYK(COCH2)N (thioether 2-19 (inferred)) [cyclic peptide SEQ ID NO: 89] |
| 0.1 to 0.5 ratio | QK(COCH2)PQNFINPVQWRYFQHYCN (thioether 2-19) [cyclic peptide SEQ ID NO: 399] |
| ≥ 0.7 ratio | KCPQNFINPVQWRYFQHYKA (not fully specified; thioether ring (C)-(K(acetyl))) [cyclic peptide SEQ ID NO: 67] |
| 0.1 to 0.5 ratio | QCPQEFINPVQWRYFQHYK(COCH2)N (thioether 2-19) [cyclic peptide SEQ ID NO: 99] |
| ≥ 0.7 ratio | VCHSNFLSAVQYAYFYQYK(COCH2)H (thioether 2-19 (inferred)) [cyclic peptide SEQ ID NO: 51] |
| 0.1 to 0.5 ratio | VCNENNWSRSQYHFFLQYK(COCH2)Y (thioether 2-19 (inferred)) [cyclic peptide SEQ ID NO: 52] |
| ≥ 0.7 ratio | B1 |
